From article PMC4692482, “Structure and Stability of the Dimeric Triosephosphate Isomerase from the Thermophilic Archaeon Thermoplasma acidophilum” (PLoS ONE, 2015)

Biological target: the molecule itself
Test: AUC; equilibrium sedimentation, 20 mM Tris-HCl pH 7.5, 200 mM NaCl, 20°C, 20,000 and 26,000 rpm, 12.6, 16.8 and 21.0 uM protein; data fit a homogeneous dimer model; reversible monomer-dimer and monomer-trimer models rejected

B1: triosephosphate isomerase from Thermoplasma acidophilum (enzyme, UniProt Q9HLB6 1-216, looked up)
chain: MYTAIVNLKTYREATGANFTRFMEKFEPVQGKFELIFSPSLLDLEKAAKCGKFRFFAQHVDAEPYGAYTGHVPMDMMIDLGITGSILNHSERRLPRDTIINTLKKASKLDFTIVLCVENAEEAKYFREYEPDFIAYEPRDLIGGDVSVSTAKPEIIEDIVKIYEGTGTSVLVGAGIKTGEDVRRSIGLGARGILVASGVVKSADPTKSLNSLIELK
notes: Cloned into pET-28a(+) with a C-terminal His6-tag; no tag removal is described; The monomer mass used for AUC is 24,671 daltons; The crystals with glycerol-3-phosphate (G3P) hold the same protein; also called TaTPI; apo-TaTPI; source: E. coli Rosetta 2(DE3)pLysS, purified (heat step 60°C, HiTrap Chelating, SEC, anion exchange, SEC)
stoichiometry N: 2
